What was measured:
Details in all cases: both partners purified
[1] = target: T1, N-terminal strep-tagged Spy (E. coli, UniProt P77754 24-161); test: pull-down; tryptic fragments of Im7 L53A I54A mixed with N-terminal strep-tagged Spy, strep-tactin sepharose column, eluted with 2.5 mM desthiobiotin, fragments identified by LC/MS
T1 construct: Spy, E. coli; Probably the mature protein behind the tag; not shown: Strep tag, N-terminal, kept
T1 sequence (looked up): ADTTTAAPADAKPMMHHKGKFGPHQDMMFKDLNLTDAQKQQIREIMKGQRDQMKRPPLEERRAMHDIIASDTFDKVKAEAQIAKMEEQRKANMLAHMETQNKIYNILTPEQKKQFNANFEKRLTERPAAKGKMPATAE

Spy L32P [2] = target: T2, Spy L32P (E. coli, UniProt P77754 24-161, L32P); test: BLI; biotinylated Im7 L53A I54A immobilised on streptavidin sensors (Octet RED); Spy variants at 2, 1, 0.5, 0.25 and 0.125 µM; 25°C; 40 mM HEPES, 150 mM NaCl, pH 7.5; 1:1 binding model, KD = koff/kon; apparent
T2 construct: N-terminal serine from the Sumo fusion construct; the footnote says it of Spy purification in general; Spy, E. coli, mature protein; numbers count on: the mature protein; Variant of m1 found by genetic selection, remade by site-directed mutagenesis; also called super-Spy variant; source: purified; not shown: SUMO, N-terminal, cleaved (from the N-terminal serine said of Spy purification in general)
T2 sequence: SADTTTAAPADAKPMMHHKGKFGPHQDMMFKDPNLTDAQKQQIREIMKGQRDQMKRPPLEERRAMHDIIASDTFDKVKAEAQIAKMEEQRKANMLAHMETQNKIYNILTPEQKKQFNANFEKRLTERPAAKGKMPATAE

Spy Q100L [3] = target: T3, Spy Q100L (E. coli, UniProt P77754 24-161, Q100L); test: as above
T3 construct: N-terminal serine from the Sumo fusion construct; the footnote says it of Spy purification in general; Spy, E. coli, mature protein; numbers count on: the mature protein; Variant of m1 found by genetic selection, remade by site-directed mutagenesis; also called super-Spy variant; source: purified; not shown: SUMO, N-terminal, cleaved (from the N-terminal serine said of Spy purification in general)
T3 sequence: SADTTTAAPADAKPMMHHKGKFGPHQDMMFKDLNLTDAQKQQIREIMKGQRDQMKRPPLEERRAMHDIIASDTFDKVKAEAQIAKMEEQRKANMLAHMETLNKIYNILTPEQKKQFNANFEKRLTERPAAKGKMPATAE

Spy F115L [4] = target: T4, Spy F115L (E. coli, UniProt P77754 24-161, F115L); test: as above
T4 construct: N-terminal serine from the Sumo fusion construct; the footnote says it of Spy purification in general; Spy, E. coli, mature protein; numbers count on: the mature protein; Variant of m1 found by genetic selection, remade by site-directed mutagenesis; also called super-Spy variant; source: purified; not shown: SUMO, N-terminal, cleaved (from the N-terminal serine said of Spy purification in general)
T4 sequence: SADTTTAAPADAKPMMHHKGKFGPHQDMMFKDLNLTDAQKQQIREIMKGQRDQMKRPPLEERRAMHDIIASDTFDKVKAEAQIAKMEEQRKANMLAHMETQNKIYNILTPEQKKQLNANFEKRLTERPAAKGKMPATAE

Spy H96L [5] = target: T5, Spy H96L (E. coli, UniProt P77754 24-161, H96L); test: as above
T5 construct: N-terminal serine from the Sumo fusion construct; the footnote says it of Spy purification in general; Spy, E. coli, mature protein; numbers count on: the mature protein; Variant of m1 found by genetic selection, remade by site-directed mutagenesis; also called super-Spy variant; source: purified; not shown: SUMO, N-terminal, cleaved (from the N-terminal serine said of Spy purification in general)
T5 sequence: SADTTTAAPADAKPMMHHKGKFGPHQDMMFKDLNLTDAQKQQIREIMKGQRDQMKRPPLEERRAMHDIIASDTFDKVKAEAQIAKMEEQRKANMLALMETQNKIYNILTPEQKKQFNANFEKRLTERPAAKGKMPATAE

Spy (wild type) [6] = target: T6, Spy (wild type) (E. coli, UniProt P77754 24-161); test: as above
T6 construct: N-terminal serine introduced from the Sumo fusion construct used for purification; numbers count on: the mature protein; construct as in Quan et al., 2011; also called WT; wild-type Spy; source: purified from a Sumo fusion construct (Quan et al., 2011); not shown: SUMO, N-terminal, cleaved (from the N-terminal serine left on the protein)
T6 sequence: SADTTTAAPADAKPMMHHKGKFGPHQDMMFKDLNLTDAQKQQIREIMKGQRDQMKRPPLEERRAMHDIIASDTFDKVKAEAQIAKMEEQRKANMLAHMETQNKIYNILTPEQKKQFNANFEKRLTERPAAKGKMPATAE

Spy Q49L [7] = target: T7, Spy Q49L (E. coli, UniProt P77754 24-161, Q49L); test: as above
T7 construct: N-terminal serine from the Sumo fusion construct; the footnote says it of Spy purification in general; Spy, E. coli, mature protein; numbers count on: the mature protein; Variant of m1 found by genetic selection, remade by site-directed mutagenesis; also called super-Spy variant; source: purified; not shown: SUMO, N-terminal, cleaved (from the N-terminal serine said of Spy purification in general)
T7 sequence: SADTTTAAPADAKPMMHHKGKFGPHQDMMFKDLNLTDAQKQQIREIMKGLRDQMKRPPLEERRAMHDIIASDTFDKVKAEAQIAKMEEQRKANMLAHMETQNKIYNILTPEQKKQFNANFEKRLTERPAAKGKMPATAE

Spy F115I [8] = target: T8, Spy F115I (E. coli, UniProt P77754 24-161, F115I); test: as above
T8 construct: N-terminal serine from the Sumo fusion construct; the footnote says it of Spy purification in general; Spy, E. coli, mature protein; numbers count on: the mature protein; Variant of m1 found by genetic selection, remade by site-directed mutagenesis; also called super-Spy variant; source: purified; not shown: SUMO, N-terminal, cleaved (from the N-terminal serine said of Spy purification in general)
T8 sequence: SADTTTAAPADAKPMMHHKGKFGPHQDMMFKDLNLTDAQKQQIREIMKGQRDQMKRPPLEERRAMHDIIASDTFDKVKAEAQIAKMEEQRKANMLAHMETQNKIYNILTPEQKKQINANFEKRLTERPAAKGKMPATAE

Spy Q25R [9] = target: T9, Spy Q25R (E. coli, UniProt P77754 24-161, Q25R); test: as above
T9 construct: N-terminal serine from the Sumo fusion construct; the footnote says it of Spy purification in general; Spy, E. coli, mature protein; numbers count on: the mature protein; Variant of m1 found by genetic selection, remade by site-directed mutagenesis; also called super-Spy variant; source: purified; not shown: SUMO, N-terminal, cleaved (from the N-terminal serine said of Spy purification in general)
T9 sequence: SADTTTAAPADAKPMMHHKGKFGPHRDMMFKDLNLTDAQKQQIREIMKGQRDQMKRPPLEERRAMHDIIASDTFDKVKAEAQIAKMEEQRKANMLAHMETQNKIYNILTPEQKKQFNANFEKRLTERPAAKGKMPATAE

Spy (wild type) [10] = target: T6, Spy (wild type); test: ITC; Spy with full length Im7 L53A I54A or purified Im7 peptides; conditions and who was titrated not told
Spy L32P [11] = target: T2, Spy L32P; test: HDX-MS; top-down ECD-FTICR-MS; 25 µM Spy (dimer) and 100 µM Im7 peptide (1:4), 10 mM ammonium acetate, 80% D2O, labelling time 10 s
Spy Q100L [12] = target: T3, Spy Q100L; test: as above
Spy F115L [13] = target: T4, Spy F115L; test: as above
Spy H96L [14] = target: T5, Spy H96L; test: as above
Spy Q49L [15] = target: T7, Spy Q49L; test: as above
Spy F115I [16] = target: T8, Spy F115I; test: as above
Spy Q25R [17] = target: T9, Spy Q25R; test: as above

B1: Im7 L53A I54A tryptic fragment 5–43 (peptide, UniProt Q03708 5-43, looked up)
chain: NSISDYTEAEFVQLLKEIEKENVAATDDVLDVLLEHFVK
notes: immunity protein 7 (Im7), residues 5-43; most of the α1 and α2 helices; source: limited proteolysis of Im7 L53A I54A with trypsin
- binding result [1]: binds

B2: Im7 L53A I54A tryptic fragment 5–76 (domain or fragment, UniProt Q03708 5-76, looked up)
chain: NSISDYTEAEFVQLLKEIEKENVAATDDVLDVLLEHFVKITEHPDGTDAAYYPSDNRDDSPEGIVKEIKEWR
notes: immunity protein 7 (Im7), residues 5-76; source: limited proteolysis of Im7 L53A I54A with trypsin
- binding result [1]: binds

B3: Im7 L53A I54A tryptic fragment 5–70 (domain or fragment, UniProt Q03708 5-70, looked up)
chain: NSISDYTEAEFVQLLKEIEKENVAATDDVLDVLLEHFVKITEHPDGTDAAYYPSDNRDDSPEGIVK
notes: immunity protein 7 (Im7), residues 5-70; source: limited proteolysis of Im7 L53A I54A with trypsin
- binding result [1]: binds

B4: Biotinylated Im7 L53A I54A (natural protein)
chain: SMELKNSISDYTEAEFVQLLKEIEKENVAATDDVLDVLLEHFVKITEHPDGTDAAYYPSDNRDDSPEGIVKEIKEWRAANGKPGFKQG
modifications: biotin (EZ-link NHS-biotin at 1:1 molar ratio; site not stated)
notes: N-terminal serine from the Sumo fusion construct; the footnote says it of Im7 purification in general; immunity protein 7 (Im7), colicin E7 immunity protein; Same protein as m10 with biotin; held on streptavidin sensors; also called biotin-conjugated Im7 L53A I54A; immunity protein 7 L53A I54A; source: purified from a Sumo fusion construct (Quan et al., 2011), biotinylated with EZ-link …
- Kd (Spy L32P [2]): 200 nM
- koff (Spy L32P [2]): 0.03 s⁻¹
- Kd (Spy Q100L [3]): 230 nM
- koff (Spy Q100L [3]): 0.027 s⁻¹
- Kd (Spy F115L [4]): 900 nM
- koff (Spy F115L [4]): 0.245 s⁻¹
- Kd (Spy H96L [5]): 1000 nM
- koff (Spy H96L [5]): 0.266 s⁻¹
- Kd (Spy (wild type) [6]): 1150 nM
- koff (Spy (wild type) [6]): 0.456 s⁻¹
- Kd (Spy Q49L [7]): 760 nM
- koff (Spy Q49L [7]): 0.176 s⁻¹
- Kd (Spy F115I [8]): 1170 nM
- koff (Spy F115I [8]): 0.328 s⁻¹
- Kd (Spy Q25R [9]): 870 nM
- koff (Spy Q25R [9]): 0.198 s⁻¹

B5: Im7 12-45 peptide (peptide)
chain: SEAEFVQLLKEIEKENVAATDDVLDVLLEHFVKIT
notes: N-terminal serine from the Sumo fusion construct; the footnote says it of Im7 purification in general; immunity protein 7 (Im7), residues 12-45; source: expressed in vivo, purified; not shown: SUMO, N-terminal, cleaved (from the N-terminal serine said of Im7 purification in general)
- Kd (Spy (wild type) [10]): 8000 nM

B6: Im7 L53A I54A (natural protein)
chain: SMELKNSISDYTEAEFVQLLKEIEKENVAATDDVLDVLLEHFVKITEHPDGTDAAYYPSDNRDDSPEGIVKEIKEWRAANGKPGFKQG
notes: N-terminal serine from the Sumo fusion construct; the footnote says it of Im7 purification in general; immunity protein 7 (Im7), colicin E7 immunity protein; also called full length Im7 L53A I54A; immunity protein 7 L53A I54A; source: purified from a Sumo fusion construct (Quan et al., 2011); not shown: SUMO, N-terminal, cleaved (from the N-terminal serine said of Im7 purification in general)
- Kd (Spy (wild type) [10]): 2500 nM

B7: Im7 7-45 peptide (peptide)
chain: SISDYTEAEFVQLLKEIEKENVAATDDVLDVLLEHFVKIT
notes: N-terminal serine introduced from the Sumo fusion construct; immunity protein 7 (Im7), residues 7-45; Called a 40-amino acid peptide: 39 residues of Im7 and the N-terminal serine; An equimolar mixture of unlabelled and 15N-labelled peptide was used for PICUP and EDC; also called Im7 L53A I54A 7-45 peptide; source: expressed in vivo as a Sumo fusion construct, purified; not shown: SUMO, …
- Kd (Spy (wild type) [10]): 2600 nM
- binding result (Spy L32P [11]): binds
- binding result (Spy Q100L [12]): binds
- binding result (Spy F115L [13]): binds
- binding result (Spy H96L [14]): binds
- binding result (Spy Q49L [15]): binds
- binding result (Spy F115I [16]): binds
- binding result (Spy Q25R [17]): binds

B8: Im7 3-45 peptide (peptide)
chain: SLKNSISDYTEAEFVQLLKEIEKENVAATDDVLDVLLEHFVKIT
notes: N-terminal serine from the Sumo fusion construct; the footnote says it of Im7 purification in general; immunity protein 7 (Im7), residues 3-45; source: expressed in vivo, purified; not shown: SUMO, N-terminal, cleaved (from the N-terminal serine said of Im7 purification in general)
- Kd (Spy (wild type) [10]): 2300 nM

B9: Im7 L53A I54A tryptic fragment 5–73 (domain or fragment, UniProt Q03708 5-73, looked up)
chain: NSISDYTEAEFVQLLKEIEKENVAATDDVLDVLLEHFVKITEHPDGTDAAYYPSDNRDDSPEGIVKEIK
notes: immunity protein 7 (Im7), residues 5-73; source: limited proteolysis of Im7 L53A I54A with trypsin
- binding result [1]: binds
